Data from patent publication US20070248607A1, “NEGATIVE IMMUNOMODULATION OF IMMUNE RESPONSES BY NKG2D-POSITIVE CD4+ CELLS” (priority 2005, published 2007).
Numbering of substitutions follows the chain as printed. Names may count otherwise. “Also recorded” adds a separate entry of the source. Peptide text beside a SMILES is read from it.

Assays:
[1] = tested on: sMICA shedding by Hela and A375 cells; experiment: Shedding of sMICA by tumor cell lines, ELISA for sMICA; type: cell-based; conditions: pharmacological inhibitors; U266, Hela, A375, HCT116 and Lovo cells; concentration-dependent; ELISA
NKG2D- CD4+ T cells = experiment: CD4 T cell proliferation (CFSE dilution, [3H]thymidine incorporation); type: cell-based; conditions: anti-CD3 activated CD4 T cell cultures
Experimental: (§1) For analysis of CD4^+ T cell proliferation in conjunction with NKG2D expression, 1×10^7 freshly isolated pure CD4^+ T cells/ml PBS were labeled with an equal volume of 2 μM CFSE (Molecular Probes) for 8 min at room temperature. CFSE was quenched with an equal volume of fetal calf serum for one min followed by three washes with AIM-V medium. CFSE labeled cells were then plated, stimulated and phenotypically analysed as described above. Additional ligands tested in this experimental setting included any of either C1R-MICB, ULBP-1, -2, -3, 4, or -5 transfectants, recombinant soluble MICB, or 5% soluble MIC containing serum from a MIC+ tumor patient and MIC− control serum. To test ligand specificity, ligand containing cultures were treated with either 10 μg/ml 6D4 (anti-MICA/B), 10 μg/ml 3F1 (anti-ULBP-1), or appropriately diluted isotype control immunoglobulins. In some experiments, ligand was replaced by solid-phase anti-NKG2D (1D11) at the concentrations ranging from 5-50 ng/ml. In some experiments, ligand/solid-phase mAb were added on day 1, 2 or 3 after the initiation of culture.
To assess inhibition of CD4^+ T cell proliferation by standard [^3H]thymidine incorporation experiments, freshly isolated pure CD4^+ T cells were plated at 1×10^5 cells/well in a 96 well flat bottom plate containing titrated cross-linked anti-CD3 (see above) or isotype control Ig with or without titrated recombinant soluble MIC. After 72 hrs at 37° C., plates were pulsed with 3 μCi of [^3H]thymidine (Perkin Elmer) for 12 hrs. Plates were harvested and samples analysed by liquid scintillation using Uni-Filter GF/C plates and a TopCount Counter (both from Packard). Counts from triplicates were averaged.

[2] = molecular target: T1, recombinant soluble MICA (rsMICA), unglycosylated, produced in bacteria; ectodomain-only MICA
T1 chain: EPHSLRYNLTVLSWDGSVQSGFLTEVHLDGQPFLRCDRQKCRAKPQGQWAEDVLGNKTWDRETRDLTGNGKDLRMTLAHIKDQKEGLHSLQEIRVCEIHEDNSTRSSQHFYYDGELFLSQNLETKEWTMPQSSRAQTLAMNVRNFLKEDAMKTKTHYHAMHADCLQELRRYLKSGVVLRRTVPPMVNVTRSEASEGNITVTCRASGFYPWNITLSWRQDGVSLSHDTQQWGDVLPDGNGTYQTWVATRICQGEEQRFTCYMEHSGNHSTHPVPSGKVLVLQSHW

[3] = molecular target: the molecule itself; experiment: size exclusion chromatography (self-association)
MICA [4] = molecular target: T2, MICA (Homo sapiens, UniProt Q29983); experiment: ERP5 activity assay, disulfide reduction (non-reducing SDS-PAGE); type: biochemical; conditions: ectodomain MICA substrate, room temperature, 1 h or 3 h, no reducing agent
T2 sequence (Q29983 24-299): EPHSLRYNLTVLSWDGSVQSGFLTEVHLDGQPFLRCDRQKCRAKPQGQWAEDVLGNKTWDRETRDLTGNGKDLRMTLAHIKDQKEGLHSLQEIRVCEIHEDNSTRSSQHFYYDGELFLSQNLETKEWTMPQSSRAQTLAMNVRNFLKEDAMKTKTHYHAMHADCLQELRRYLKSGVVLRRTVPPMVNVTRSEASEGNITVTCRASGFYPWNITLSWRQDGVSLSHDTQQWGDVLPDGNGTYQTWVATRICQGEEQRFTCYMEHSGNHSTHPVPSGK

MICA [5] = molecular target: T3, MICA (Homo sapiens, UniProt Q29983); experiment: as above; type: biochemical; conditions: isolated α3 domain (residues 187-274)
T3 sequence (Q29983 210-297): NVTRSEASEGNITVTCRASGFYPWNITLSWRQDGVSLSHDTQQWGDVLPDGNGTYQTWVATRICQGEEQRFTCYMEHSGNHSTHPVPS

NKG2D+ CD4+ T cells = experiment: NKG2D expression and expansion of activated CD4 T cells; type: cell-based; conditions: anti-CD3 activated CD4 T cell cultures
Experimental: For the analysis of NKG2D expression in activated CD4 T cells, freshly isolated pure CD4^+ T cells were plated at 0.3×10^6/2 ml AIM-V medium (Gibco)/well in 24 well plates for various periods of time with or without the presence of mitogenic stimuli and/or the presence of NKG2D ligands. Mitogenic stimuli included either cross-linked anti-CD3 (plates were first coated with AffiniPure F(ab′)2 fragment goat anti-mouse IgG1, Fcγ fragment specific (Jackson ImmunoResearch Laboratories, Inc.) at 10 μg/ml in PBS over night at 4° C. followed by a 4 hr room temperature incubation with anti-CD3 (OKT3, Orthoclone, Ortho Biotech Products, L.P.) at 50 ng/ml (if not indicated otherwise), PHA (5 μg/ml), or PMA/Ionomycin. Ligand additions consisted of either irradiated CLR-MICA and control transfectants at a T cell:transfectant ratio of 5:1, or recombinant soluble MICA at 25 ng/ml if not indicated otherwise. Cells were harvested at various time points after the initiation of culture and tested for NKG2D, CD4 and CD3 coexpression using directly conjugated mAbs for standard three color flow cytometry.
as §1

[6] = molecular target: T4, MICA tetramer (recombinant MICA*001, residues 1-276, produced in transfected 293T cells, conjugated with … (human, UniProt Q29983 24-299, highly glycosylated (293T cells); conjugated with PE-streptavidin); experiment: flow cytometry, PE-streptavidin tetramers on NKL cells
T4 construct: Tags from the Invitrogen expression system are not described; also called MICA tetramers; MICA ligand tetramers
T4 sequence: T2 sequence (Q29983 24-299)

Molecule: O=C(O)c1cc(SSc2ccc([N+](=O)[O-])c(C(=O)O)c2)ccc1[N+](=O)[O-] [DTNB, 5,5-dithiobis-(2-nitrobenzoic acid)]
- shedding of sMICA [1]: markedly reduced; also recorded: Inhibition of sMICA shedding; also recorded: reduce shedding of sMICA

Molecule: CC[C@H](C)[C@H](N)C1=N[C@H](C(=O)N[C@@H](CC(C)C)C(=O)N[C@H](CCC(=O)O)C(=O)N[C@H](C(=O)N[C@H]2CCCCNC(=O)[C@H](CC(N)=O)NC(=O)[C@@H](CC(=O)O)NC(=O)[C@H](Cc3cnc[nH]3)NC(=O)[C@@H](Cc3ccccc3)NC(=O)[C@H]([C@@H](C)CC)NC(=O)[C@@H](CCCN)NC2=O)[C@@H](C)CC)CS1 [bacitracin] (HELM PEPTIDE1{[CC[C@H](C)[C@H](N)C1=N[C@H](C(=O)[*:2])CS1].L.[dE].I.K.[NCCC[C@@H](N[*:1])C(=O)[*:2]].I.[dF].H.[dD].N}$PEPTIDE1,PEPTIDE1,5:R3-11:R2$$$V2.0)
- shedding of sMICA [1]: markedly reduced; also recorded: Inhibition of sMICA shedding; also recorded: reduce shedding of sMICA

B1: soluble MICB: recombinant soluble MICB, NKG2D ligand (protein)
chain: EPHSLRYNLMVLSQDGSVQSGFLAEGHLDGQPFLRYDRQKRRAKPQGQWAEDVLGAETWDTETEDLTENGQDLRRTLTHIKDQKGGLHSLQEIRVCEIHEDSSTRGSRHFYYNGELFLSQNLETQESTVPQSSRAQTLAMNVTNFWKEDAMKTKTHYRAMQADCLQKLQRYLKSGVAIRRTVPPMVNVTCSEVSEGNITVTCRASSFYPRNITLTWRQDGVSLSHNTQQWGDVLPDGNGTYQTWVATRIRQGEEQRFTCYMEHSGNHGTHPVPSGK
- proliferation of NKG2D- CD4+ T cells (NKG2D- CD4+ T cells): Growth inhibition

B2: ERP5 fragment 1-118 (N-terminal thioredoxin-like domain), bacterially produced, N-terminal hexahistidine (enzyme, UniProt Q15084 20-137, looked up)
chain: LYSSSDDVIELTPSNFNREVIQSDSLWLVEFYAPWCGHCQRLTPEWKKAATALKDVVKVGAVDADKHHSLGGQYGVQGFPTIKIFGSNKNRPEDYQGGRTGEAIVDAALSALRQLVKD
notes: Numbers count on the mature protein; also called N-terminal ERP5 polypeptide fragment; not shown: N-terminal hexahistidine tract
- disulfide bond reduction of MICA (non-reducing SDS-PAGE) [2]: only the N-terminal domain displayed functional activity
- binding result [3]: no binding

B3: C36S: C36S active site mutant of ERP5 fragment 1-118 (protein)
chain: B2 chain with C36S
modifications: left off: small tags and cut ends
- reduction of MICA disulfide bonds (MICA [4]): no activity

B4: ERP5 fragment 1-118: N-terminal thioredoxin-like domain fragment of ERP5, residues 1-118 (protein)
chain: B2 chain
modifications: left off: small tags and cut ends
- reduction of MICA disulfide bonds (MICA [4]): partially reduced

B5: C39S: C39S active site mutant of ERP5 fragment 1-118 (protein)
chain: B2 chain with C39S
modifications: left off: small tags and cut ends
- reduction of the MICA α3 domain disulfide bond (MICA [5]; listed as ERP5 1-118 C39S mutant polypeptide): reduces the α3 domain disulfide bond of MICA
- reduction of the MICA α3 domain disulfide bond (MICA [5]; listed as ERP5 1-118 polypeptide fragment with the C39S mutation): unresolved mixed disulfide heterodimer
- reduction of MICA disulfide bonds (MICA [4]): formed a trapped disulfide-linked intermediate
- reduction of MICA disulfide bonds (MICA [4]; listed as C39S mutant of ERP5 fragment 1-118): disulfide-linked heterodimers

B6: ERP5 fragment 1-118 C36S mutant (protein)
chain: B2 chain with C36S
- disulfide bond reduction of MICA (non-reducing SDS-PAGE) [2]: C36S showed no activity on MICA substrate

B7: soluble MIC: recombinant soluble MIC ligand of NKG2D (protein)
chain: T2 sequence (Q29983 24-299)
- proliferation of NKG2D- CD4+ T cells (NKG2D- CD4+ T cells): dramatically inhibited
- expansion / proliferation of NKG2D+ CD4+ T cells (NKG2D+ CD4+ T cells): enhanced

B8: ERP5 fragment 135-421, bacterially produced, N-terminal hexahistidine (enzyme, UniProt Q15084 154-440, looked up)
chain: SDSSSKKDVIELTDDSFDKNVLDSEDVWMVEFYAPWCGHCKNLEPEWAAAASEVKEQTKGKVKLAAVDATVNQVLASRYGIRGFPTIKIFQKGESPVDYDGGRTRSDIVSRALDLFSDNAPPPELLEIINEDIAKRTCEEHQLCVVAVLPHILDTGAAGRNSYLEVLLKLADKYKKKMWGWLWTEAGAQSELETALGIGGFGYPAMAAINARKMKFALLKGSFSEQGINEFLRELSFGRGSTAPVGGGAFPTIVEREPWDGRDGELPVEDDIDLSDVELDDLGKDEL
notes: range 135-421; Numbers count on the mature protein; also called ERP5 135-421; not shown: N-terminal hexahistidine tract
- disulfide bond reduction of MICA (non-reducing SDS-PAGE) [2]: only the N-terminal domain displayed functional activity
- binding result [3]: no binding

B9: NKG2D (on NKL NK cells and on CD4+ T cells) (receptor, human, UniProt P26718 1-216, looked up)
chain: MGWIRGRRSRHSWEMSEFHNYNLDLKKSDFSTRWQKQRCPVVKSKCRENASPFFFCCFIAVAMGIRFIIMVTIWSAVFLNSLFNQEVQIPLTESYCGPCPKNWICYKNNCYQFFDESKNWYESQASCMSQNASLLKVYSKEDQDLLKLVKSYHWMGLVHIPTNGSWQWEDGSILSPNLLTIIEMQKGDCALYASSFKGYIENCSTPNTYICMQRTV
notes: whole, on cells; also called NKG2D receptor
- binding result [6]: binds
